{
  "source": "patent US20190040138A1",
  "molecular_target": "PD-1 antigen stably expressed on the surface of BB007 cells (UniProt Q15116)",
  "sequence (Q15116 25-288 limits assumed)": "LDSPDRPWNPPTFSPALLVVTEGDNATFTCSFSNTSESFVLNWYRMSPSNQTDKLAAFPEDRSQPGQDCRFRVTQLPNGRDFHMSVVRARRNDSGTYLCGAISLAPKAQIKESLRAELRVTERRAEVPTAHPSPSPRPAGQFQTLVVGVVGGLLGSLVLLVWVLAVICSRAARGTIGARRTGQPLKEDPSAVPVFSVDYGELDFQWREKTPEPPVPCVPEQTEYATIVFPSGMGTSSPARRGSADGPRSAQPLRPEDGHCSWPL",
  "experiment": "flow cytometry on BB007 cells; control, printed under the column 0 nM",
  "data": [
    {"substance": "hIgG (antibody)", "values": [
      {"measurement": "fluorescence intensity", "value": 7.4}
    ]}
  ]
}
